The data set in a line: yeast display, Sf9 membrane polyspecificity reagent, FACS + sequencing; frameworks hold sequencing errors. The method in brief: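 Polyreactivity labels are assigned by the sorting gate from which each nanobody was recovered. The gates were low and high (top ~1%), set on anti-HA fluorescence for expression and streptavidin fluorescence for reagent binding. Before sorting, galactose-induced (36–48 hours) yeast display cells were stained for 1 hour at 4 °C with 10% biotinylated, detergent-solubilized Sf9 membrane reagent.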
For “QVQIVESGGGLVQAGGILRLSCAASGITFTSYAMGWYRQAPGKEREFVAAISWSGDRTYYADSVKGRFTISRDNAKNTVYLQMICLKPEETAVYYCNAYIYFSAYDPDYYWGQGTQVTVSS”, the “polyreactivity (PSR sort gate)” value is “high polyreactivity”. Turning to “QVQLVESGGVLVQAGGSLRLSCAASGSIFEVNSMGWYRQAPGKERELVDTITYSGGSTYYADSVKGRFTLSRDNAKNNVYLQMNSLKPEDTAVYYCATDYVDWELYIYDYWGQGTQVTVSS”, the “polyreactivity (PSR sort gate)” value is “low polyreactivity”. For the sequence “QVQLVESGGGLVQAGGSLRLSCAASGSIFSSYAMVWYRQAPGKERELVAAIDGSGGSTYADSVKGRFTISRDHAKNTVYLQMNSLKPEDTAVYYCAADSYSGRYYWWEYDYWGQGTQVTVSS”, the “polyreactivity (PSR sort gate)” value is on record as “low polyreactivity”. As for “QVQLVESGGGLVQAGGSLRLSCAASGSIFFTNVMGWYRQAPGKEREFVAAITGGGGSTYYADSVKGRFTISRDNAKNTVYLQMNSLKPEDTAVYYCATKAKPRSGYNYWGQGTQVTVSS”, the “polyreactivity (PSR sort gate)” value is “low polyreactivity”. On to “QVQLVESGGGLVQAGGSLRLSCAASGRTFKRYAMGWYRQAPGKERELVATISGNGGRTYYADSVKGRFTISRDNAKNTVYLQMNSLKPEDTAVYYCAALLYIRSVGYDYWGQGTQVTVSS”, for which the “polyreactivity (PSR sort gate)” value is “low polyreactivity”. Next, “QVQLVESGGGLVQAGGSLRLSCAASGFTFTPNAMGWYRQAPGKERELVAAITSDGTTYYADSVKGRFTISRDNAKNTVYLQMNSLNPEDTAVYYCAADGGISAGANSGYDYWGQGTQVTVSS”: “high polyreactivity”. Consider “QVQLVESGGGLVQAGGSLRLSCAASGIIFDTYTMGWTRHSPGKERELVAAITRRGSRTYYADSVKGRFTISRDNAKNTVYLQMNSLKREDTAVYYCNAVPRWSYVDEDSWGQGTQVTVSS”, for which the “polyreactivity (PSR sort gate)” value is “high polyreactivity”. Regarding “QVQLVESGGGLVQAGGSLRLSCAASGRIFGWYAMGWYRQAPGNEREFVAAITVTGGSTYYADSVKGRCTISRDNAKNTVYLQMNSLKPEDTAVYYCAADRWYTRTGFDYWGQGTQVTVSS”, the “polyreactivity (PSR sort gate)” value is listed as “low polyreactivity”. Consider “QVQLVESGGGLVQAGGSLRLSCAASGRIFLFYAMGWYRQAPGKERELVAAISSTDDTYYADSVKGRFTISRDNAKNTVYLQMNSLKPEDTAVYYSAAYSIISQSEMYYRGQGTQVTVSS”, for which the “polyreactivity (PSR sort gate)” value was “low polyreactivity”. Next, “QVQLVESGGGLVQAGGSLRLSCAASGRTFYTNAMGWYRQAPGKERELVAGISWGDGNTYYADSVKGRFTISRDNAKNTVYLQMNSLKPEDTAVYYCAVTYIILWSYSHTEFDYWGQGNQVTVSS”: “low polyreactivity”. Consider “QVQLVESGGGLVQAGGSLRLSCAASGSIFDKNAMGWYRQAPGKERELVAAIRRTSTTYYADSVKGRFTISRDNAKKTVYLQMNSLKPEDTAVYYCAATYGSGYWYPRYYYWGQGTQVTVSS”, for which the “polyreactivity (PSR sort gate)” value is given as “high polyreactivity”.

As for “QVQLVESGGGLVQAGGSLRLSCAASGITFWYYAMGWYRQAPRKERELVAAISWDGGSTYYADSVKGRFTISRDNAKNTVYVQMNSLKPEDTAVYYCNAVRYLERKYDYWGQGTQVTVSS”, the “polyreactivity (PSR sort gate)” value is on record as “high polyreactivity”. Consider “QVQLVDSGGGLVQAGGSLRITCAASVLTFRRNPMGWYRQAPGKARELLGTITSGGSTNYADTVKGRFTISRDNAKNTVYLQMNSLKPEDTAVYYCNSVHLRIMYYWGQGTQVTVSS”, for which the “polyreactivity (PSR sort gate)” value is “high polyreactivity”. Regarding “QVQLVESGGGLVQAGGSLRLSCAASGSTFYFNAMGWYRQAPGKEREFVAGIRYSGSSTYYADSVKGRFTISRDNAKNTVYLQMNSLKPEDTAVYYCAAERWCYTVRGYGYWGHGTQVTVSS”, the “polyreactivity (PSR sort gate)” value is recorded as “high polyreactivity”. The same measure for “QVQLVESGGGLVQAGGSLRLSCAASGSTISKYAMGWYRQAPGKERYLVAAISSRGGSTYYADSVKGRFTISRDNAKNTVYLQMNSLTPEDTAVYYCNATPYPGGNGRWRFWKSYRYWGQGTQVTVSS”: “high polyreactivity”; for “QVQLVESGGGLVQAGGSLRLSCAASGSIFDVNPMGWYRQAPGKERELVAAISQRGTRTYYADSVKGRFTISRDNAKNTVYLQMNSLKPEDTAVYSCNRGGWRQYDSWGQGTQVTVSS”: “high polyreactivity”.
